In patent US20040010124A1 (MacroGenics, published 2004):

Each binder was assayed against T1, soluble form of human CD16A (sCD16A) (human, UniProt P08637 17-203) (assay: ELISA, sCD16A captured by mAb LNK-16).
T1 construct: CD16A gene truncated just prior to the transmembrane region, expressed in HEK-293; The last seven residues come from vector pCDNA3.1; also called sFcRIIIa
Method: The plate was washed and dilutions of recombinant antibodies starting at 0.5 μg/ml in PBS-T-BSA were then added and incubated for 1 hr at room temp. […] After stopping color development using dilute sulfuric acid, the plate was read at 450 nm.

T1 sequence (P08637 other isoform, or with tags, fused parts or gaps limits assumed): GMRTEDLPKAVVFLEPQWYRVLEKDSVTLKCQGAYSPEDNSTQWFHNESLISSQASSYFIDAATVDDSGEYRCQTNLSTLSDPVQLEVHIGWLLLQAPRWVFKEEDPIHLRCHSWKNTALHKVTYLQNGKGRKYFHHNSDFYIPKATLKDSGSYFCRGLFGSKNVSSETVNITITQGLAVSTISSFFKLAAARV

binding result | Binder
binds | hu3G8VH-40/hu3G8VL-1 (antibody, V domains shown, Human Cγ1/Cκ constant regions; HEK-293) VH: QITLKESGPTLVKPTQTLTLTCTFSGFSLSTSGVGVGWIRQPPGKALEWLAHIFWDDDKRYSPSLKSRLTISKDTSKNQVVLTMTNMDPVDTATYYCARINPAWFAYWGQGTLVTVSS VL: DIVMTQSPDSLAVSLGERATINCKASQSVDFDGDSFMNWYQQKPGQPPKLLIYTTSNLESGVPDRFSGSGSGTDFTLTISSLQAEDVAVYYCQQSNEDPYTFGQGTKLEIK
binds | hu3G8VH-42/hu3G8VL-1 (antibody, V domains shown, Human Cγ1/Cκ constant regions; HEK-293) VH: QITLKESGPTLVKPTQTLTLTCTFSGFSLSTSGVGVGWIRQPPGKALEWLAHIWWDDDKRYSPSLKSRLTITKDTSKNQVVLTMTNMDPVDTATYYCARINPAWFAYWGQGTLVTVSS VL: DIVMTQSPDSLAVSLGERATINCKASQSVDFDGDSFMNWYQQKPGQPPKLLIYTTSNLESGVPDRFSGSGSGTDFTLTISSLQAEDVAVYYCQQSNEDPYTFGQGTKLEIK
binds | hu3G8VH-45/hu3G8VL-1 (antibody, V domains shown, Human Cγ1/Cκ constant regions; HEK-293) VH: QITLKESGPTLVKPTQTLTLTCTFSGFSLSTSGVGVGWIRQPPGKALEWLAHIWWDDDKRYSPSLKSRLTITKDTSKNQVVLTMTNMDPVDTATYYCAQINPAYFDYWGQGTLVTVSS VL: DIVMTQSPDSLAVSLGERATINCKASQSVDFDGDSFMNWYQQKPGQPPKLLIYTTSNLESGVPDRFSGSGSGTDFTLTISSLQAEDVAVYYCQQSNEDPYTFGQGTKLEIK
binds | hu3G8VH-43/hu3G8VL-1 (antibody, V domains shown, Human Cγ1/Cκ constant regions; HEK-293) VH: QITLKESGPTLVKPTQTLTLTCTFSGFSLSTSGVGVGWIRQPPGKALEWLAHIWWDDDKRYSPSLKSRLTITKDTSKNQVVLTMTNMDPVDTATYYCARINPAYFAYWGQGTLVTVSS VL: DIVMTQSPDSLAVSLGERATINCKASQSVDFDGDSFMNWYQQKPGQPPKLLIYTTSNLESGVPDRFSGSGSGTDFTLTISSLQAEDVAVYYCQQSNEDPYTFGQGTKLEIK
binds | hu3G8VH-44/hu3G8VL-1 (antibody, V domains shown, Human Cγ1/Cκ constant regions; HEK-293) VH: QITLKESGPTLVKPTQTLTLTCTFSGFSLSTSGVGVGWIRQPPGKALEWLAHIWWDDDKRYSPSLKSRLTITKDTSKNQVVLTMTNMDPVDTATYYCAHINPAYFDYWGQGTLVTVSS VL: DIVMTQSPDSLAVSLGERATINCKASQSVDFDGDSFMNWYQQKPGQPPKLLIYTTSNLESGVPDRFSGSGSGTDFTLTISSLQAEDVAVYYCQQSNEDPYTFGQGTKLEIK

The binders below were run against T1, soluble form of human CD16A (sCD16A) (assay: in vitro, method not given).
From the text: The same format was used to assay binding of sFcRs to immune complexes (IC) formed on the ELISA plate between ch4-4-20 and FITC-BSA.
After one hour, binding of the soluble receptor to the IC was detected using streptavidin-HRP conjugate and TMB development.

binding result | Binder
binds | chimeric antibody ch3G8 (ch3G8VH/ch3G8VL) (antibody, V domains shown, Mouse 3G8 VH (FR4 ala to ser) on human Cγ1 and mouse 3G8 VL on human Cκ; also called chimeric 3G8; ch3G8-γ1) VH: QVTLKESGPGILQPSQTLSLTCSFSGFSLRTSGMGVGWIRQPSGKGLEWLAHIWWDDDKRYNPALKSRLTISKDTSSNQVFLKIASVDTADTATYYCAQINPAWFAYWGQGTLVTVSS VL: DTVLTQSPASLAVSLGQRATISCKASQSVDFDGDSFMNWYQQKPGQPPKLLIYTTSNLESGIPARFSASGSGTDFTLNIHPVEEEDTATYYCQQSNEDPYTFGGGTKLEIK
